Measured values taken from article PMC2755476, “The Sam domain of the lipid phosphatase Ship2 adopts a common model to interact with Arap3-Sam and EphA2-Sam” (BMC Structural Biology, 2009).

T1: Sam domain of Arap3 (Arap3-Sam), His-tag cut away with thrombin (human, UniProt Q8WWN8 1-80)
T1 construct: Arap3, human, residues 1 to 80, encompassing the Sam domain (residues 4 to 68); same construct as m1 after thrombin cleavage of the His-tag; A few vector residues probably remain at the N-terminus after thrombin cleavage; source: E. coli BL21-Gold (DE3), pET15b, purified (nickel column); His-tag cut with thrombin, thrombin removed on a benzamidine column; not shown: His6, N-terminal, cleaved
T1 sequence (looked up): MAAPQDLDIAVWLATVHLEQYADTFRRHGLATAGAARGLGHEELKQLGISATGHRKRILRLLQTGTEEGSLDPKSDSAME

B1: Ship2-peptide Ac-EGLVHNGWDDLEFLSDITEEDL-NH2 (Shiptide) (peptide)
peptide: Ac-EGLVHNGWDDLEFLSDITEEDL-NH2
notes: region of Ship2-Sam, amino acids from 43 to 64. numbers count on: the Ship2-Sam construct, as in PDB 2K4P; source: synthetic peptide; purchased from the Protein/DNA Facility of the Medical College of Wisconsin

Tests used:
Arap3 Sam (Homo sapiens) = Arap3 Sam (Homo sapiens) (UniProt Q8WWN8); assay: ITC; conditions: cited from earlier work
EphA2 Sam (Homo sapiens) = EphA2 Sam (Homo sapiens) (UniProt P29317); assay: ITC; conditions: cited from earlier work
Sequence of EphA2 Sam (Homo sapiens) (P29317 901-971): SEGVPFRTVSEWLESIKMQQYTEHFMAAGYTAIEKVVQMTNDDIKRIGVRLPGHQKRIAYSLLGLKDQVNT

[1] = target: T1, Sam domain of Arap3 (Arap3-Sam), …; assay: ITC; 25 C, VP-ITC; Shiptide (1 mM) titrated into Arap3-Sam (75 uM, His-tag cut away); 1 x PBS pH 7.7; one binding site model; repeated twice; conditions: both partners purified

Molecule | Kd (Arap3 Sam (Homo sapiens)) [nM] | Kd (EphA2 Sam (Homo sapiens)) [nM] | Kd [1] [nM] | dH [1] [kcal/mol] | stoichiometry N [1]
Ship2 Sam (from UniProt O15357) | 100 | 750 |  |  | 
B1 |  |  | 40000 ± 7000 | -2.6 ± 0.922 | 0.8 ± 0.1
